The nature of this data set: soluble on expression in E. coli; label from the status in PepcDB or PDB records.
On to “MHHHHHHSSGVDLGTENLYFQSNAMSHSIEQLSINTIRTLSIDAIEKANSGHPGMPMGAAPMAYTLWTQFMKHNPNNPTWFNRDRFVLSAGHGSMLLYSLLHLSGYDVTMDDLKNFRQWGSKTPGHPEYGHTAGVDATTGPLGQGIATAVGMAMAERHLAAKYNRDAYNIVDHYTYAICGDGDLMEGVSAEASSLAAHLQLGRLVVLYDSNDISLDGDLNRSFSESVEDRYKAYGWQVIRVEDGNDIEAIAKAIEEAKADEKRPTLIEVRTTIGFGSPNKSGKSASHGSPLGVEETKLTKEAYAWTAEQDFHVAEEVYENFRKTVQDVGETAQAEWNTMLGEYAQAYPELANELQAAMNGLLPEGWEQNLPTYELGSKAATRNSSGAVINAIAESVPSFFGGSADLAGSNKTYMNNEKDFTRDDYSGKNIWYGVREFAMGAAMNGIALHGGLKTYGGTFFVFSDYLRPAIRLAALMQLPVTYVFTHDSIAVGEDGPTHEPIEQLAALRAMPNVSVIRPADGNESVAAWRLALESTNKPTALVLTRQDLPTLEGAKDDTYEKVAKGAYVVSASKKETADVILLATGSEVSLAVEAQKALAVDGVDASVVSMPSMDRFEAQTAEYKESVLPKAVTKRFAIEMGATFGWHRYVGLEGDVLGIDTFGASAPGEKIMEEYGFTVENVVRKVKEML”, for which the “soluble on expression in E. coli” value is “soluble”.
Next, “MHKDIKIVDASAIVKPTGTPYVVYFSSISNNTHRFIEKLEFEHTRIPVNLDEQIEVNQEYVLFCPTYSGGGEYTSGAVPKQVIHFLNNKHNRDLCRGVISSGNTNFGNTFAIAGPILSKKLNVPLLYQFELLGTKNDVEQVQTIITNFFGKAK”: “soluble”; “MHLELHQINGNDPLGTIIGERNYQLPIPLPYTMKTVKQIHSGIWHTVIRGYDQYNRPQIATFGKNYDGQLGTGDCENRDTPTPIKLPPEMLTFHAIQTGFFHTIATGLDKNGFPIVASCGYNSDGQLGCGDKDNKNTLIPIKLPENMKSVEMVATGVKHTVIVGKDINNKPVVATCGHNGYGQLGTGDEENRLCLTPIGIPEDITSVDYVGAGAYHTVICGRNIKNQPIITLCGCNSDGELGFAPQKIAKKSSLMTNPAMFFPPRQDKSAINNLMKISKFSPCNLL”: “not soluble”.
Next, “MHLSPESLEAFVQAVSLGSFSAAARKLGKSQSTVSEAIARLEIDLGLELFDRSGRQPQLTEAGRTLLGRVEEVLGASDRLRRVAALLAGGSEPRVTLALSDTYHSARYEARLAELDERYPELEFECLIAEDQDVIAQVSRGRATLGLLAAQPHYPPELGVAAVAERAEFGLFAAVDHPLAGLERVSERDLSEWRLLRLNTYSETGAAINDGLPSSGGRCWSAPNYLLLLEMATHGFGWAELPRWLVSGYANGRLKELPVSGWPRSQAVDVVWSRQRPLGPAANWLLDRLLDRDLPI”: “not soluble”.
The entry for “MHMLKARNCGWIRLLPLFMLSLPVQAELRCVANAVDIESFFSAATAEDKQQVEQAINSSVNLVPFGLSASNWKVHRGDLVVEGNIESNQKLIVLGNLTVKGNISTFSLSNPWVILGNVTATNIVADSPLLITGSINASGLVFIDSYYDNPSTIKGSINARGIFINDIIAPVVASSTNSEFMVRASDKHDTENVKKALMIINPDAYYWGLINDEDALKEIFKRSNIRMAGNVCNQMKKEALFRPKPSPELVQELQMLDEGKVAAFEGRDIATFDLAVMRTLPRLKGISANLRKQLINSNDEQTIESMARYMPDNEILELTDQQLGYQPVVLGLLDREPLSVEIMTRMSRLPDGVGPLNLALRENLPLDIVMTLAKRDWDMIIQELYKDAWLLPESIIDGYIRSDDSSIRQVGAGGQLTYNQAMQLANDSSNNVVTSLAFKLAEMKHHGQLLRMTPQESDKVAGYLYQKFENDDDLIRVLFLALPDNLQFNFVKRMEKKSPAYFCCRDMQVIHSDAALQRLLTRFNDPEGWSNLAKNQYLSTSMKQKIWQRALSHRKNNPKADSDAYETSADMILSELISHGEVDDQMLLNATALIRSDDWDFLESALISWDNLPAVVLKELQQNTPRNDIWAKFFLRQENSSRAQVDEALRVYYALDPDALAQLDVLAKQPDRIWWSTLAKSNLTFFKFGALNNRHTPPAVLAAEIDPEWWIVAMNNPRFPVDVLKARLKRDPLLALELVNPELDLVRQLALNGKTRAIREQAMRKLDELY” is “not soluble”; for “MHMQLKGKTALVTGSTAGIGKAIATSLVAEGANVLINGRREENVNETIKEIRAQYPDAILQPVVADLGTEQGCQDVIEKYPKVDILINNLGIFEPVEYFDIPDEDWFKLFEVNIMSGVRLTRSYLKKMIERKEGRVIFIASEAAIMPSQEMAHYSATKTMQLSLSRSLAELTTGTNVTVNTIMPGSTLTEGVETMLNSLYPNEQLTIEEAEKRFMKENRPTSIIQRLIRPEEIAHLVTFLSSPLSSAINGSALRIDGGLVRSVF” it is “not soluble”; for “MHQQIIKFWFEELTPQNWFENNPELDKHIASRFASVLEQAARCELFNWRDSAQGRLAEIIVLDQFSRNVYRNTPKAFAQDPLALALAQEAIRLGHDQELAPEQLSFLYMPFMHSESRLIHVEAEKLFRASGLENNYDFELKHKAIIDQFGRYPHRNAILGRESTPEELAFLQQPGSSF” it is “not soluble”.
In the case of “MHRGGQPLKKRRGSFKMAELDQLPDESSSAKALVSLKEGSLSNTWNEKYSSLQKTPVWKGRNTSSAVEMPFRNSKRSRLFSDEDDRQINTRSPKRNQRVAMVPQKFTATMSTPDKKASQKIGFRLRNLLKLPKAHKWCIYEWFYSNIDKPLFEGDNDFCVCLKESFPNLKTRKLTRVEWGKIRRLMGKPRRCSSAFFEEERSALKQKRQKIRLLQQRKVADVSQFKDLPDEIPLPLVIGTKVTARLRGVHDGLFTGQIDAVDTLNATYRVTFDRTGLGTHTIPDYEVLSNEPHETMPIAAFGQKQRPSRFFMTPPRLHYTPPLQSPIIDNDPLLGQSPWRSKISGSDTETLGGFPVEFLIQVTRLSKILMIKKEHIKKLREMNTEAEKLKSYSMPISIEFQRRYATIVLELEQLNKDLNKVLHKVQQYCYELAPDQGLQPADQPTDMRRRCEEEAQEIVRHANSSTGQPCVENENLTDLISRLTAILLQIKCLAEGGDLNSFEFKSLTDSLNDIKSTIDASNISCFQNNVEIHVAHIQSGLSQMGNLHAFAANNTNRD”, the “soluble on expression in E. coli” value is listed as “soluble”.
The entry for “MHTDTPSLESLLEAARQRYDVVFEPLTVDETPLDVLQIRNMRQHIDALVANRSVRDPLHDLPLWAKIWPASFVLGRFLRKASPEGRTLLEVGAGCGVTGLIASRYGFAHVTVSDINEDALLFARANVLKNGLEDRVSVRRVDVASTRLDEKFDVIAASEVLYLEELHRPLIKFLLRHLARREDAVAMLCTDTRRKMGRFFKQAERDFRIEEQLVGIRTTGDDGEEERRVFTIHRLHHKHPLEHHHHHH” is “not soluble”; for “MHTQRAGLSAIVATYRYQLATGVVYRDISSTIATEKIPFVENAVLKERAFIETIKQHQEPQRRIPRPVDSYVMLHSNARITTSRVIPQHKYKVTAKNPCRSIKRNAFQTAPSQTQLFISVNNRWLGLEHHHHHH” it is “not soluble”.
Next, “MHVTLVEINVHEDKVDEFIEVFRQNHLGSVQEEGNLRFDVLQDPEVNSRFYIYEAYKDEDAVAFHKTTPHYKTCVAKLESLMTGPRKKRLFNGLMP”: “soluble”.
The entry for “MIAKHIDRFPLLKLDRVIDWQLIEQYLNRQKTRYLRDHRGRPAYPLLSMFKAVLLGQWHSLSDPELEHSLITRIDFNLFCRFDELSIPDYSTLCRYRNRLAQDNTLSELLELINRQLTEKGLKIEKASAAVVDATIIQTAGSKQRQAIEVDEEGQISGQTTPSKDSDARWIKKNGLYKLGYKQHTRTDAEGYIEKLHITPANAHECKHLSPLLEGLPKGTTVYADKGYDSAENRQHLEEHQLLDGIMRKAHRNRPLTEVQTKRNRYLSKTRYVVEQSFGTLHRKFRYARAAYFGLVKVSAQSHLKAMCLNLLKAANRLSAPAAA” is “not soluble”.
With “MICARIRPLISSPLAFTISTTKHSRINLRLLPRRSFSVMSSSTPQSQIIEHIVLFKTKDDADSTKITSMINNLNALAYLDQVLHISTSPLHRISSATAFTHVLHSRYESKEDLASYAAHPDHVRVVKESVLPICDDIMAVDWIADRIPGTVAPLPGSVAKLTLLKLKEDVADEAKSEITGVIKGLSEKFPGIDQITVGENFSPARAKGFSIASIAYFKDLSEMEAVDAQKELVNSQKDKVRDYVDSTIVVEFVVPSSSQSSSL”, the “soluble on expression in E. coli” value is “soluble”.
On to “MIDEYDDLAHDSSEGEFEPNTLTPEEKPPHNVDEDRIESTGVAAPMQGTEEPEKGDQKESDGASQVDQSVEITRPETSYYQTLESPSTKRQKLDQQGNGDQTRDFGTSMEL”, for which the “soluble on expression in E. coli” value is “soluble”.
Turning to “MIDIHCHILPAMDDGAGDSADSIEMARAAVRQGIRTIIATPHHNNGVYKNEPAAVREAADQLNKRLIKEDIPLHVLPGQEIRIYGEVEQDLAKRQLLSLNDTKYILIEFPFDHVPRYAEQLFYDLQLKGYIPVIAHPERNREIRENPSLLYHLVEKGAASQITSGSLAGIFGKQLKAFSLRLVEANLIHFVASDAHNVKTRNFHTQEALYVLEKEFGSELPYMLTENAELLLRNQTIFRQPPQPVKRRKLFGFF”, the “soluble on expression in E. coli” value is “not soluble”.
As to “MIDLDSLEHIGVLGKPHGVQGECNARLTADLSTLFEEEERLFLFFELDALPVPFRLIGYREKTDDITLLRFAGIESKEEMEQYTGVSLFMERRYFDTDSIEFTWEHFIGFTVFDREGCFVGTIDDVDESTLNVLLSITTPEGKELLLPVAEDLLEEIDVPNRKLTMIIPDGLLQLLEHHHHHH”, the “soluble on expression in E. coli” value was “soluble”.
The entry for “MIDLRKLTEVQRRLSRKIVEKPIDIAKVKRVGAVDVSYKNNFAKAAFVCVEFPSGEIIKTKTIVTTVEFPYIPTFFFLRETKPILLAVKDENFDVLLVEGHGKAHPRRYGLASHIGVILSKPTIGVAKRLLRGVSKDTYVKVGKAFVSVGNLITLNDAVRIVEKLLDENGYPKPLNIADKLSKRGESREKELEHHHHHH” is “not soluble”; for “MIDVHCHLVDNKFKEDLDDVIGHAHATGIQKMINFPEFESQFEKSIGISKKWPGSVYTGIGIHPIQKRGKSAKMKHISKMEQFFVEHERDIICVGECGLDHTISQFKLTTEDFEEQETVFKWQIDLAKHFEKPLNVHSRSAARRTIEILLECHVAPDQVVLHAFDGTPGDLKLGLEAGYLFSIPPSFGKSEETTQLIESIPLSQLLLETDSPALGPEKGCKNVPANLRISAEIVAKIKKLEIDDIISATSTNANRIFKF” it is “soluble”.
“MIEFTALDDLSLLRESVSLECKLAQGRDGKGALPDDFWPTYSAMANTDGGIVILGVRERKGQFEVAGIENPDKLRTELFNHLNNRQKVSVNLLRDEDVRAWPVEGKTLLVVEIPRARRQQRPVYLRGNPLGGHTYRRLHEGDRPLPDEDVKRMLAEQVEDSRDERILPGYGLDDLHLESLRAYRQLFANRDPSHPWNALADQAFLRQIGGWRQHRETGEAGLTLAGLLMFGQWSSITEAVPLCFLDYQERPADYATTVQWLDRIVPDGTWSGNVFDFYRRVVGKLTADIKVPFVLKGDIRQDDTPTHKALREALVNTLVHADYTGRISVLVVKEPAGFVLRNPGGLRVPAQQALQGGMSDCRNRTMQQMFLMIGLGERAGSGMSRIVHGWRDLGHELHLRESYEPHEHSVLEMFWAKGRGATLASESSEESSEESSEETGKKILHLLREEPSLTASALARRLQLTPRAIEKQLEHHHHHH”: the “soluble on expression in E. coli” value is reported as “not soluble”.
As to “MIEIKHLKTLQALRNSGSLAAAAAVLHQTQSALSHQFSDLEQRLGFRLFVRKSQPLRFTPQGEVLLQLANQVLPQISRALQACNEPQQTRLRIAIECHSCIQWLTPALENFRASWPQVEMDFTSGVTFDPQPALQQGELDLVMTSDILPRSGLHYSPMFDFEVRLVLAPDHPLASKTQITPEDLASETLLIYPVQRSRLDVWRHFLQPAGISPLLKSVDNTLLLIQMVAARMGIAALPHWVVESVERQGLVVTKTLGDGLWSRLYAAVRDGDQRQAVTEAFIRSTRDHACDHLPFVRSAERPIFDAPTAKPGSQPRL”, the “soluble on expression in E. coli” value was “not soluble”.

For the origin of these results see the DeepSol protein solubility set.
